{
  "source": "patent US20240209076A1",
  "about": "(KODIAK SCIENCES, published 2024)",
  "data": [
    {"target": "T1, human IL-6 (human, UniProt P05231 30-212)", "T1 construct": "IL-6 flowed over captured antibodies", "T1 sequence (P05231 30-212 limits assumed)": "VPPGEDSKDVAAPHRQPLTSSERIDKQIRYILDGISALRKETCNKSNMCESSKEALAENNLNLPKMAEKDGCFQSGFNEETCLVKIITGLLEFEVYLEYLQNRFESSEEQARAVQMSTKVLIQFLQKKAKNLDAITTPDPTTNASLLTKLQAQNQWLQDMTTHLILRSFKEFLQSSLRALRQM", "assay": "SPR Biacore, supernatant Ab on Protein A chip, 37 C", "experimental": "Antibodies were captured on a Protein A chip (GE) by injecting 1:20 cell supernatant dilutions at 10 μL/min for 60 seconds. […] The sensor chip was regenerated by a 60 seconds injection of 10 mM Glycine pH 1.7 at the flow rate of 50 μL/min. […] For this setup, 1 μg/mL of purified antibody was injected over a Protein A chip at 10 μL/min for 25 seconds. […] The sensor chip was regenerated by a 60 seconds injection of 10 mM Glycine pH 1.7 at flow rate of 50 μL/min. Data analysis for supernatant and purified samples were performed using BIAevaluation software (GE). All sensorgrams were double reference subtracted and fit using a 1:1 Langmuir binding model.", "units": {"Kd": "pM", "koff": "s⁻¹", "kon": "M⁻¹ s⁻¹"}, "values": [
      {"binder": "anti-IL-6 antibody, heavy chain I51A, G66D / light chain M32L, M50D, N52S, M88Q (antibody, IgG1, V domains shown, Full IgG1 (Expi293); VL = variant III) VH: EVQLVESGGGLVQPGGSLRLSCAASGFTFSPFAMSWVRQAPGKGLEWVAKASPGGSWTYYSDTVTDRFTFSLDTSKSTAYLQMNSLRAEDTAVYYCARQLWGYYALDIWGQGTLVTVSS VL: DIQLTQSPSSLSASVGDRVTITCSASISVSYLYWYQQKPGKAPKLLIYDDSSLASGVPSRFSGSGSGTDFTLTISSLQPEDFATYYCQQWSGYPYTFGQGTKVEIK", "Kd": 559, "koff": 0.000899, "kon": "1.61e+06"},
      {"binder": "anti-IL-6 antibody, heavy chain I51G, G66D / light chain M32L, M50D, N52S, M88Q (antibody, IgG1, V domains shown, Full IgG1 (Expi293); VL = variant III) VH: EVQLVESGGGLVQPGGSLRLSCAASGFTFSPFAMSWVRQAPGKGLEWVAKGSPGGSWTYYSDTVTDRFTFSLDTSKSTAYLQMNSLRAEDTAVYYCARQLWGYYALDIWGQGTLVTVSS VL: DIQLTQSPSSLSASVGDRVTITCSASISVSYLYWYQQKPGKAPKLLIYDDSSLASGVPSRFSGSGSGTDFTLTISSLQPEDFATYYCQQWSGYPYTFGQGTKVEIK", "Kd": 652, "koff": 0.000912, "kon": "1.4e+06"},
      {"binder": "anti-IL-6 antibody, heavy chain I51Q, G66D / light chain M32L, M50D, N52S, M88Q (antibody, IgG1, V domains shown, Full IgG1 (Expi293); VL = variant III) VH: EVQLVESGGGLVQPGGSLRLSCAASGFTFSPFAMSWVRQAPGKGLEWVAKQSPGGSWTYYSDTVTDRFTFSLDTSKSTAYLQMNSLRAEDTAVYYCARQLWGYYALDIWGQGTLVTVSS VL: DIQLTQSPSSLSASVGDRVTITCSASISVSYLYWYQQKPGKAPKLLIYDDSSLASGVPSRFSGSGSGTDFTLTISSLQPEDFATYYCQQWSGYPYTFGQGTKVEIK", "Kd": 575, "koff": 0.00113, "kon": "1.96e+06"},
      {"binder": "anti-IL-6 antibody, heavy chain I51E, G66D / light chain M32L, M50D, N52S, M88Q (antibody, IgG1, V domains shown, Full IgG1 (Expi293); VL = variant III) VH: EVQLVESGGGLVQPGGSLRLSCAASGFTFSPFAMSWVRQAPGKGLEWVAKESPGGSWTYYSDTVTDRFTFSLDTSKSTAYLQMNSLRAEDTAVYYCARQLWGYYALDIWGQGTLVTVSS VL: DIQLTQSPSSLSASVGDRVTITCSASISVSYLYWYQQKPGKAPKLLIYDDSSLASGVPSRFSGSGSGTDFTLTISSLQPEDFATYYCQQWSGYPYTFGQGTKVEIK", "Kd": 2140, "koff": 0.00196, "kon": 914000},
      {"binder": "anti-IL-6 antibody, heavy chain I51L, G66D / light chain M32L, M50D, N52S, M88Q (antibody, IgG1, V domains shown, Full IgG1 (Expi293); VL = variant III) VH: EVQLVESGGGLVQPGGSLRLSCAASGFTFSPFAMSWVRQAPGKGLEWVAKLSPGGSWTYYSDTVTDRFTFSLDTSKSTAYLQMNSLRAEDTAVYYCARQLWGYYALDIWGQGTLVTVSS VL: DIQLTQSPSSLSASVGDRVTITCSASISVSYLYWYQQKPGKAPKLLIYDDSSLASGVPSRFSGSGSGTDFTLTISSLQPEDFATYYCQQWSGYPYTFGQGTKVEIK", "Kd": 980, "koff": 0.00161, "kon": "1.64e+06"},
      {"binder": "anti-IL-6 antibody, heavy chain I51H, G66D / light chain M32L, M50D, N52S, M88Q (antibody, IgG1, V domains shown, Full IgG1 (Expi293); VL = variant III) VH: EVQLVESGGGLVQPGGSLRLSCAASGFTFSPFAMSWVRQAPGKGLEWVAKHSPGGSWTYYSDTVTDRFTFSLDTSKSTAYLQMNSLRAEDTAVYYCARQLWGYYALDIWGQGTLVTVSS VL: DIQLTQSPSSLSASVGDRVTITCSASISVSYLYWYQQKPGKAPKLLIYDDSSLASGVPSRFSGSGSGTDFTLTISSLQPEDFATYYCQQWSGYPYTFGQGTKVEIK", "Kd": 500, "koff": 0.00104, "kon": "2.07e+06"},
      {"binder": "anti-IL-6 antibody, heavy chain I51D, G66D / light chain M32L, M50D, N52S, M88Q (antibody, IgG1, V domains shown, Full IgG1 (Expi293); VL = variant III) VH: EVQLVESGGGLVQPGGSLRLSCAASGFTFSPFAMSWVRQAPGKGLEWVAKDSPGGSWTYYSDTVTDRFTFSLDTSKSTAYLQMNSLRAEDTAVYYCARQLWGYYALDIWGQGTLVTVSS VL: DIQLTQSPSSLSASVGDRVTITCSASISVSYLYWYQQKPGKAPKLLIYDDSSLASGVPSRFSGSGSGTDFTLTISSLQPEDFATYYCQQWSGYPYTFGQGTKVEIK", "Kd": 9580, "koff": 0.00799, "kon": 834000},
      {"binder": "anti-IL-6 antibody, heavy chain I51K, G66D / light chain M32L, M50D, N52S, M88Q (antibody, IgG1, V domains shown, Full IgG1 (Expi293); VL = variant III) VH: EVQLVESGGGLVQPGGSLRLSCAASGFTFSPFAMSWVRQAPGKGLEWVAKKSPGGSWTYYSDTVTDRFTFSLDTSKSTAYLQMNSLRAEDTAVYYCARQLWGYYALDIWGQGTLVTVSS VL: DIQLTQSPSSLSASVGDRVTITCSASISVSYLYWYQQKPGKAPKLLIYDDSSLASGVPSRFSGSGSGTDFTLTISSLQPEDFATYYCQQWSGYPYTFGQGTKVEIK", "Kd": 349, "koff": 0.000601, "kon": "1.72e+06"},
      {"binder": "anti-IL-6 antibody, heavy chain I51R, G66D / light chain M32L, M50D, N52S, M88Q (antibody, IgG1, V domains shown, Full IgG1 (Expi293); VL = variant III) VH: EVQLVESGGGLVQPGGSLRLSCAASGFTFSPFAMSWVRQAPGKGLEWVAKRSPGGSWTYYSDTVTDRFTFSLDTSKSTAYLQMNSLRAEDTAVYYCARQLWGYYALDIWGQGTLVTVSS VL: DIQLTQSPSSLSASVGDRVTITCSASISVSYLYWYQQKPGKAPKLLIYDDSSLASGVPSRFSGSGSGTDFTLTISSLQPEDFATYYCQQWSGYPYTFGQGTKVEIK", "Kd": 35.7, "koff": "5.8e-05", "kon": "1.63e+06"}
    ]}
  ]
}
